# Target: T1, trypsin (Bos taurus, UniProt P00760)
# T1 construct: gene PRSS1
# T1 sequence (P00760 24-246): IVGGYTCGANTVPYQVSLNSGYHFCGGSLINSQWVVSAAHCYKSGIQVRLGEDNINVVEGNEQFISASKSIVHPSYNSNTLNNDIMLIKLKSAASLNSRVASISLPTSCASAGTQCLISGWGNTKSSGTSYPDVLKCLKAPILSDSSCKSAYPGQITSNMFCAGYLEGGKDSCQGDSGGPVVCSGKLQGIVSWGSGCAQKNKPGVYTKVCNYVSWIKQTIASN
# Assay: Hydrolysis of fluorogenic protease substrate by purified enzyme (trypsin), fluorescence intensity
# Assay type: biochemical
# Conditions: for Average ratio w/ trypsin to w/o trypsin: average over emission 570-585 nm
# Method: Enzymatic hydrolysis of the substrate from Example 1 was carried out in 50 mM carbonate buffer, pH 8.9 at room temperature. Fluorescence intensity of the solution prior to treatment with trypsin and after treatment with trypsin is shown in Table 1, for excitation wavelengths of 360 nm, 522 nm, 530 nm, and 553 nm, respectively. […] This is a characteristic of dye dimerization or stacking, as described above. […] Both the fluorescence and absorption results provided convincing evidence that ground-state interactions existed between dye molecules in the conjugate and became diminished after enzymatic cleavage.
# [1] = Excitation 360 nm, emission 570 nm
# [2] = Excitation 360 nm, emission 571 nm
# [3] = Excitation 360 nm, emission 572 nm
# [4] = Excitation 360 nm, emission 573 nm
# [5] = Excitation 360 nm, emission 574 nm
# [6] = Excitation 360 nm, emission 575 nm
# [7] = Excitation 360 nm, emission 576 nm
# [8] = Excitation 360 nm, emission 577 nm
# [9] = Excitation 360 nm, emission 578 nm
# [10] = Excitation 360 nm, emission 579 nm
# [11] = Excitation 360 nm, emission 580 nm
# [12] = Excitation 360 nm, emission 581 nm
# [13] = Excitation 360 nm, emission 582 nm
# [14] = Excitation 360 nm, emission 583 nm
# [15] = Excitation 360 nm, emission 584 nm
# [16] = Excitation 360 nm, emission 585 nm
# [17] = Excitation 522 nm, emission 570 nm
# [18] = Excitation 522 nm, emission 571 nm
# [19] = Excitation 522 nm, emission 572 nm
# [20] = Excitation 522 nm, emission 573 nm
# [21] = Excitation 522 nm, emission 574 nm
# [22] = Excitation 522 nm, emission 575 nm
# [23] = Excitation 522 nm, emission 576 nm
# [24] = Excitation 522 nm, emission 577 nm
# [25] = Excitation 522 nm, emission 578 nm
# [26] = Excitation 522 nm, emission 579 nm
# [27] = Excitation 522 nm, emission 580 nm
# [28] = Excitation 522 nm, emission 581 nm
# [29] = Excitation 522 nm, emission 582 nm
# [30] = Excitation 522 nm, emission 583 nm
# [31] = Excitation 522 nm, emission 584 nm
# [32] = Excitation 522 nm, emission 585 nm
substance,measurement,setting,value
TMR-Val-Pro-Arg-Gly-Lys-TMR (XPRGX; not fully specified; TMR dye at both ends) [T-VPRGK-T],Average ratio w/ trypsin to w/o trypsin,Excitation 360 nm,26
same,Fluorescence intensity w/ trypsin,[1],8625
same,Fluorescence intensity w/o trypsin,[1],319
same,ratio w/ trypsin to w/o trypsin,[1],27
same,Fluorescence intensity w/ trypsin,[2],8817
same,Fluorescence intensity w/o trypsin,[2],347
same,ratio w/ trypsin to w/o trypsin,[2],25
same,Fluorescence intensity w/ trypsin,[3],9322
same,Fluorescence intensity w/o trypsin,[3],369
same,ratio w/ trypsin to w/o trypsin,[3],25
same,Fluorescence intensity w/ trypsin,[4],9189
same,Fluorescence intensity w/o trypsin,[4],365
same,ratio w/ trypsin to w/o trypsin,[4],25
same,Fluorescence intensity w/ trypsin,[5],9629
same,Fluorescence intensity w/o trypsin,[5],354
same,ratio w/ trypsin to w/o trypsin,[5],27
same,Fluorescence intensity w/ trypsin,[6],9719
same,Fluorescence intensity w/o trypsin,[6],410
same,ratio w/ trypsin to w/o trypsin,[6],24
same,Fluorescence intensity w/ trypsin,[7],9759
same,Fluorescence intensity w/o trypsin,[7],401
same,ratio w/ trypsin to w/o trypsin,[7],24
same,Fluorescence intensity w/ trypsin,[8],9776
same,Fluorescence intensity w/o trypsin,[8],378
same,ratio w/ trypsin to w/o trypsin,[8],26
same,Fluorescence intensity w/ trypsin,[9],9981
same,Fluorescence intensity w/o trypsin,[9],379
same,ratio w/ trypsin to w/o trypsin,[9],26
same,Fluorescence intensity w/ trypsin,[10],9872
same,Fluorescence intensity w/o trypsin,[10],392
same,ratio w/ trypsin to w/o trypsin,[10],25
same,Fluorescence intensity w/ trypsin,[11],9788
same,Fluorescence intensity w/o trypsin,[11],361
same,ratio w/ trypsin to w/o trypsin,[11],27
same,Fluorescence intensity w/ trypsin,[12],9960
same,Fluorescence intensity w/o trypsin,[12],375
same,ratio w/ trypsin to w/o trypsin,[12],27
same,Fluorescence intensity w/ trypsin,[13],9783
same,Fluorescence intensity w/o trypsin,[13],376
same,ratio w/ trypsin to w/o trypsin,[13],26
same,Fluorescence intensity w/ trypsin,[14],9591
same,Fluorescence intensity w/o trypsin,[14],347
same,ratio w/ trypsin to w/o trypsin,[14],28
same,Fluorescence intensity w/ trypsin,[15],9387
same,Fluorescence intensity w/o trypsin,[15],385
same,ratio w/ trypsin to w/o trypsin,[15],24
same,Fluorescence intensity w/ trypsin,[16],9427
same,Fluorescence intensity w/o trypsin,[16],353
same,ratio w/ trypsin to w/o trypsin,[16],27
same,Average ratio w/ trypsin to w/o trypsin,Excitation 522 nm,28
same,Fluorescence intensity w/ trypsin,[17],40193
same,Fluorescence intensity w/o trypsin,[17],1378
same,ratio w/ trypsin to w/o trypsin,[17],29
same,Fluorescence intensity w/ trypsin,[18],41416
same,Fluorescence intensity w/o trypsin,[18],1525
same,ratio w/ trypsin to w/o trypsin,[18],27
same,Fluorescence intensity w/ trypsin,[19],42506
same,Fluorescence intensity w/o trypsin,[19],1480
same,ratio w/ trypsin to w/o trypsin,[19],29
same,Fluorescence intensity w/ trypsin,[20],43406
same,Fluorescence intensity w/o trypsin,[20],1509
same,ratio w/ trypsin to w/o trypsin,[20],29
same,Fluorescence intensity w/ trypsin,[21],44241
same,Fluorescence intensity w/o trypsin,[21],1645
same,ratio w/ trypsin to w/o trypsin,[21],27
same,Fluorescence intensity w/ trypsin,[22],45037
same,Fluorescence intensity w/o trypsin,[22],1643
same,ratio w/ trypsin to w/o trypsin,[22],27
same,Fluorescence intensity w/ trypsin,[23],45519
same,Fluorescence intensity w/o trypsin,[23],1587
same,ratio w/ trypsin to w/o trypsin,[23],29
same,Fluorescence intensity w/ trypsin,[24],45648
same,Fluorescence intensity w/o trypsin,[24],1672
same,ratio w/ trypsin to w/o trypsin,[24],27
same,Fluorescence intensity w/ trypsin,[25],45980
same,Fluorescence intensity w/o trypsin,[25],1629
same,ratio w/ trypsin to w/o trypsin,[25],28
same,Fluorescence intensity w/ trypsin,[26],45745
same,Fluorescence intensity w/o trypsin,[26],1673
same,ratio w/ trypsin to w/o trypsin,[26],27
same,Fluorescence intensity w/ trypsin,[27],45757
same,Fluorescence intensity w/o trypsin,[27],1595
same,ratio w/ trypsin to w/o trypsin,[27],29
same,Fluorescence intensity w/ trypsin,[28],44936
same,Fluorescence intensity w/o trypsin,[28],1665
same,ratio w/ trypsin to w/o trypsin,[28],27
same,Fluorescence intensity w/ trypsin,[29],44724
same,Fluorescence intensity w/o trypsin,[29],1567
same,ratio w/ trypsin to w/o trypsin,[29],29
same,Fluorescence intensity w/ trypsin,[30],44076
same,Fluorescence intensity w/o trypsin,[30],1599
same,ratio w/ trypsin to w/o trypsin,[30],28
same,Fluorescence intensity w/ trypsin,[31],43282
same,Fluorescence intensity w/o trypsin,[31],1601
same,ratio w/ trypsin to w/o trypsin,[31],27
same,Fluorescence intensity w/ trypsin,[32],42928
same,Fluorescence intensity w/o trypsin,[32],1527
same,ratio w/ trypsin to w/o trypsin,[32],28
